Assay in all cases: purified protein
Settings in all cases: 100 μM DCPIP as electron acceptor, 50 mM Tris-HCl, 1 mM EDTA, pH 8.0, 37°C, corrected to 100% Mo saturation

Substrate in series [1]: CCCCC=O
The class given is biochemical, Mus musculus.

Substrate in series [2]: O=Cc1ccccc1
The class given is biochemical, Mus musculus.

Substrate in series [3]: O=Cc1ccccc1O
The class given is biochemical, Mus musculus.

Substrate in series [4]: c1ccc2cnncc2c1
The class given is biochemical, Mus musculus.

Substrate in series [5]: c1ncc2[nH]cnc2n1
Type of series: biochemical, Mus musculus.

Substrate in series [6]: c1ccc2c(c1)cnc1ccccc12

This is an account of results in article PMC5784979, “Direct comparison of the four aldehyde oxidase enzymes present in mouse gives insight into their substrate specificities” (PLoS ONE, 2018).

B1: mAOX4 (Mus musculus) (protein)
chain: MPSVSESDELIFFVNGKKVIEKNPDPEKNLLFYTRKVLNLTGTKYSCGTGGCGACTVMVSRYNPKTRKIHHYPATACLVPICWLHGAAITTVEGVGSIKKRVHPVQERLAKCHGTQCGFCSPGMVMSIYTLLRNHPEPTPDQITEALGGNLCRCTGYRPIVESGKTFSQKSTVCQMKGSGKCCMDPDEKCLESREKKMCTKLYNEDEFQPFDPSQEPIFPPELIRMAEDPNKRRLTFQGKRTTWIIPVTLNDLLELKASYPEAPLVMGNTTVGPGIKFNDEFYPVFISPLGVPELNLMDTTNNGVTIGAGYSLAQLKDTLDFLVSEQPKEKTKTFHALQKHLRTLAGPQIRNMATLGGHTASRPNFSDLNPILAAGNATINVVSREGKDRQLPLNGPFLEKLPEADLKPEEVILSIFIPYTAQWQFVSGLRLAQRQENAFAIVNAGMSVEFEEGTNTIKDLKMFFGSVAPTVVSASQTCKQLIGRQWDDQMLSDACQLVLQEIRIPPDAEGGMVEYRRTLIISLLFKFYLKVQRWLNEMDPQKFPDIPGKFVSALDDFPIETPQGIQMFQCVDPKQPQKDPVGHPIMHQSGIKHATGEAIFIDDMPPIDQELCLAVVTSTRAHAKITSLDVSEALACPGVVDVITAEDVPGENDHNGEILYAQSEVICVGQIICTVAADTYIHAKEAAKRVKIAYDDIEPTIITIEEALEHNSFLSPEKKIEQGNVDYAFKHVDQIVEGEIHVEGQEHFYMETQTILAIPQTEDKEMVLHLGTQFPTHVQEFVSAALNVPRSRIACHMKRAGGAFGGKVTKPALLGAVCAVAANKTGRPIRFILERSDDMLITAGRHPLLGKYKIGFMNNGEIRAADVEYYTNGGCTPDESELVIEFVVLKSENTYHIPNFRCRGRACKTNLPSNTAFRGFGFPQATVVVEAYIAAVASKCNLLPEEVREINMYKKTSKTAYKQTFNPEPLRRCWKECLEKSSFFARKKAAEEFNGNNYWKKRGLAVVPMKFSVAVPIAFYNQAAALVHIFLDGSVLLTHGGCELGQGLHTKMIQVASRELNVPKSYVHFSETSTTTVPNSAFTAGSMGADINGKAVQNACQILMDRLRPIIRKNPKGKWEEWIKMAFEESISLSATGYFKGYQTNMDWKKEEGDPYPYYVYGAACSEVEVDCLTGAHKLLRTDIFVDAAFSINPALDIGQVEGAFIQGMGFYTTEELKYSPKGVLYSRGPEDYKIPTITEIPEEFYVTLVHSRNPIAIYSSKGLGEAGMFLGSSVLFAIYDAVTTARKERGLSDIFPLNSPATPEVIRMACTDQFTEMIPRDDPSTFTPWSIHVS
notes: recombinant from E. coli TP1000 (plasmid pMAOX4), Ni-NTA and Superdex 200 purified, chemically sulfurated, dimer (300 kDa)
As for B1, the Km (usually the substrate concentration at which the rate is half of its maximum) in the series “purified protein [1]” came out at 48.3 ± 8.7 µM; in the series “purified protein [2]”, 2.2 ± 0.2 µM; in “purified protein [3]”, 13.2 ± 2.4 µM; in “purified protein [4]”, 8.3 ± 0.9 µM; in the series “purified protein [5]”, 12344 µM. For the same protein, the kcat (usually the maximal rate divided by the concentration of active sites) in the series “purified protein [1]” worked out at 2.8 ± 0.22 s⁻¹; in the series “purified protein [2]” it was 1.52 ± 0.0383 s⁻¹; in “purified protein [3]”, 3.42 ± 0.112 s⁻¹; in “purified protein [4]” it was 5.51 ± 0.142 s⁻¹. Further, the kcat/Km (as a rule, the turnover number divided by the Michaelis constant) in the series “purified protein [1]” is 58300 M⁻¹ s⁻¹; in “purified protein [2]”, 693000 M⁻¹ s⁻¹; in “purified protein [3]”, 260000 M⁻¹ s⁻¹; in the series “purified protein [4]”, 665000 M⁻¹ s⁻¹.

B2: mAOX3 (Mus musculus) (protein)
chain: MSPSKESDELIFFVNGKKVTERNADPEVNLLFYLRKVIRLTGTKYGCGGGDCGACTVMISRYDPISKRISHFSATACLVPICSLHGAAVTTVEGIGSTKTRIHPVQERIAKGHGTQCGFCTPGMVMSIYTLLRNHPEPSTEQIMETLGGNLCRCTGYRPIVESAKSFCPSSTCCQMNGEGKCCLDEEKNEPERKNSVCTKLYEKKEFQPLDPTQELIFPPELMRMAEESQNTVLTFRGERTTWIAPGTLNDLLELKMKHPSAPLVIGNTYLGLHMKFTDVSYPIIISPARILELFVVTNTKQGLTLGAGLSLTQVKNVLSDVVSRLPKEKTQIYCALLKQLKTLAGQQIRNVASLGGHIISRLPTSDLNPILGIGNCILNVASTEGIQQIPLNDHFLAGVPDAILKPEQVLISVFVPRSSKWEFVSAFRQAPRQQNAFATVNAGMKVVFKEDTNTITDLGILYGGIGATVISADKSCRQLIGRCWDEEMLDDAGKMICEEVSLLMAAPGGMEEYRKTLAISFLFMFYLDVLKQLKTRDPHKYPDISQKLLHILEDFPLTMPYGMQSFQDVDFQQPLQDPIGRPIMHQSGIKHATGEAVFCDDMSVLPGELFLAVVTSSKSHAKIISLDASEALASLGVVDVVTARDVPGDNGREEESLYAQDEVICVGQIVCAVAADSYAHAQQAAKKVKIVYQDIEPMIVTVQDALQYESFIGPERKLEQGNVEEAFQCADQILEGEVHLGGQEHFYMETQSVRVVPKGEDKEMDIYVSSQDAAFTQEMVARTLGIPKNRINCHVKRVGGAFGGKASKPGLLASVAAVAAQKTGRPIRFILERRDDMLITGGRHPLLGKYKIGFMNNGKIKAADIQLYINGGCTPDDSELVIEYALLKLENAYKIPNLRVRGRVCKTNLPSNTAFRGFGFPQGAFVTETCMSAVAAKCRLPPEKVRELNMYRTIDRTIHNQEFDPTNLLQCWEACVENSSYYNRKKAVDEFNQQRFWKKRGIAIIPMKFSVGFPKTFYYQAAALVQIYTDGSVLVAHGGVELGQGINTKMIQVASRELKIPMSYIHLDEMSTVTVPNTVTTGASTGADVNGRAVQNACQILMKRLEPIIKQNPSGTWEEWVKEAFVQSISLSATGYFRGYQADMDWEKGEGDIFPYFVFGAACSEVEIDCLTGAHKNIRTDIVMDGSFSINPAVDIGQIEGAFVQGLGLYTLEELKYSPEGVLYTRGPHQYKIASVTDIPEEFHVSLLTPTPNPKAIYSSKGLGEAGTFLGCSVFFAIAAAVAAAREERGLSPIWAINSPATAEVIRMACEDQFTNLVPQTDSKCCKPWSIPVA
notes: recombinant from E. coli TP1000 (plasmid pMMA1), Ni-NTA and Superdex 200 purified, chemically sulfurated, dimer (300 kDa)
On to B2, for which the Km was 10.8 ± 1.8 µM in “purified protein [6]”, 0.8 ± 0.1 µM in the series “purified protein [2]” and 3181 ± 334 µM in the series “purified protein [5]”. For the same protein, the kcat was 2.353 ± 0.0917 s⁻¹ in “purified protein [6]”, 2.512 ± 0.06 s⁻¹ in “purified protein [2]” and 7.862 ± 0.298 s⁻¹ in the series “purified protein [5]”.

B3: mAOX2 (Mus musculus) (protein)
chain: MPCPAQISDDLEFFVNGRKVTEKNVDPEVTLLAFLRKNLCLTGTKDACGTGGCGACTVMVSQHDPVCKKTRHFSVMACLVPLCSLHGAAVTTVEGVGSIKTRLHPVQERIAKSHGTQCGFCTPGMVMSIYTLLRNHPQPSEEQLMEALGGNLCRCTGYRPILESGRTFCMEPDGCPQKGTGQCCLDQKESDSSGSKSDICTKLFVKDEFQPLDPTQELIFPPELLRMAENPEKQTLTFYGERITWIAPGTLQELLVLKAKYPEAPLISGNTALGPAMKSQGHFYPVLLSPARIPDLRMVTKTSGGLTIGACCSLAQVKDILAESISELPQEKTQTYRALLKHLRSLAGQQIRNMASLGGHVISRHCYSDLNPILSVGNTTLNLLSEEGPRQIPLSGHFLAGLASADLKPEEILGSVYIPHSQKREFVSAFRQAQCHQNALPDVNAGMRVLFREGTDVIEELSIAYGGVGPTTVSAQRSCQQLLGRRWNALMLDEACRLLLDEVSLPGSALGGKVEFRRTLIVSLFFKFYLEVLQELKADQKLPPESTDSQRYPEIADRFLSSLGDFQVTLPRGVQTYQRVDSHQPLQDPVGRPIMHLSGLKHATGEAVFCDDIPRVDKELFMALVTSTRAHARIISIDSSEVLDLPGVVDVITAEDIPGNNGEEDDKLLAVDKVLCVGQVICAVVAETDVQAKRATEKIKITYEDLKPVIFTIEDAIKHNSFLCPEKKLEQGNIEEAFENVDQVAEGTVHVGGQEHFYMETQRVLVIPKTEDKELDMYVSTQDPAHVQKTVSSTLNIPISRITCHVKRVGGGFGGKVGRPAVFGAIAAVGAVKTGHPIRLVLDREDDMLITGGRHPLFAKYKVGFMNSGRIKALDIECYINGGCTLDDSELVTEFLVLKLENAYKIRNLRLRGRACMTNLPSNTAFRGFGFPQGALVTESCITAVAAKCGLPPEKIREKNMYKTVDKTIYKQAFNPDPLIRCWNECLDKSSFHIRRTRVDEFNKKSYWKKRGIAIVPMKFSVGFAATSYHQAAALVHIYTDGSVLVAHGGNELGQGIHTKMLQVASRELKIPLSYLHICETSTTTVPNTIATAASVGADVNGRAVQNACQILLKRLEPVIKKNPEGTWRDWIEAAFEKRISLSATGYFRGYKAFMDWEKGEGDPFPYYVYGAACSEVEIDCLTGAHKKIRTDIVMDACCSLNPAIDIGQIEGAFIQGMGLYTTEELLYSPEGVLYSRSPDKYKIPTVTDVPEQFNVSLLPSSQTPLTLYSSKGLGESGMFLGSSVFFAIVDAVAAARRQRDIAEDFTVKSPATPEWVRMACADRFTDMIPRDDPKTFKPWSIPIA
notes: recombinant from E. coli TP1000 (codon-optimized plasmid pMAOX2co), Ni-NTA and Superdex 200 purified, chemically sulfurated, dimer (300 kDa)
As to B3, in the series “purified protein [6]”, the Km worked out at 1.9 ± 0.3 µM and the catalytic constant (kcat) worked out at 1.962 ± 0.0817 s⁻¹. Besides, the Km in “purified protein [5]” amounted to 298.4 µM.
